Measurements as given in patent publication US20050260683A1, “Methods for diagnosing and treating pre-term labor” (University of Hawaii, priority 2002, published 2005).
Entries after “also recorded” stand apart in the source; their conditions may differ.

Columns and labels:
Assay type in all cases: cell-based, human
[1] = system: IL-6 gene expression in fetal membrane explants; assay: rhPBEF treatment of fetal membrane explants, IL-6 gene expression by Northern analysis; conditions: rhPBEF 100 ng/ml, 4 h, vs control
From the text: (§1) elective term Cesarean section without labor (n=7). For the Northern analysis of IL-6 and IL-8 gene expression after rhPBEF treatment, fetal membranes from elective term Cesarean sections before labor (37-40 weeks gestation, n=6) were collected and cut into 3×3 cm explants. None of the preterm or term patients or tissues had any clinical or histological signs of chorioamnionitis. The placentas and membranes were examined by a pathologist for histological evidence of infection using the criteria of Naeye (see Naeye R I. “Disorders of the placenta, fetus and neonate: diagnosis and clinical significance.” St Louis: C U Mosby; 1992. p.258) and all tissues with any sign of infection were excluded from this study.
Total RNA was extracted (see Chomzynski and Sacchi, supra) and MRNA prepared as previously described (see Aviv and Leder, supra). Samples of MRNA (10-20 μg) were electrophoresed, and the RNA transferred to a nylon membrane (Magna Graph, MSI, Westborough, Mass.) as previously described (see Ognjanovic et al., supra). The cDNA probes were labeled using the Random Primed DNA labeling kit and following the manufacturer's instructions (Invitrogen, Carlsbad, Calif.). […] The Northern blot was quantitated with a Phospholmager (Amersham Pharmacia Biotech, Piscataway, N.Y.), using the G3PDH value for each sample to standardize sample loading. Results were expressed as a ratio to G3PDH. […]

[2] = system: IL-8 gene expression in amniotic epithelial (WISH) cells; assay: rhPBEF treatment of WISH cells, IL-8 gene expression by Northern analysis; conditions: rhPBEF 100 ng/ml, 4 h
Procedure: Total RNA was extracted (see Chomzynski and Sacchi, supra) and MRNA prepared as previously described (see Aviv and Leder, supra). Samples of MRNA (10-20 μg) were electrophoresed, and the RNA transferred to a nylon membrane (Magna Graph, MSI, Westborough, Mass.) as previously described (see Ognjanovic et al., supra). The cDNA probes were labeled using the Random Primed DNA labeling kit and following the manufacturer's instructions (Invitrogen, Carlsbad, Calif.). The filters were hybridized at 68° C. for 1 h using Express Hyb solution (Clontech, Palo Alto, Calif., USA). A final wash stringency of 0.1×SSC, 0.1% SDS was performed at 50° C. Filters were deprobed in 0.5% SDS for 10 min at 100° C. and re-hybridized sequentially with cDNA probes to PBEF, IL-6 and IL-8 and finally with a human glyceraldehyde-3 phosphate dehydrogenase (G3PDH) cDNA probe (Clontech), as an internal standard. The Northern blot was quantitated with a Phospholmager (Amersham Pharmacia Biotech, Piscataway, N.Y.), using the G3PDH value for each sample to standardize sample loading. Results were expressed as a ratio to G3PDH. […]
The amnion-like epithelial (WISH) cells were obtained from American Type Culture Collection (ATCC# CCL-25) (ATCC, Manassas, Va.). […] The concentration of rhPBEF was determined using the BioRad protein assay and 1, 10 and 100 ng/ml was added to the cells for 4 and 24 h. […]

[3] = system: IL-6 gene expression in amniotic epithelial (WISH) cells; assay: rhPBEF treatment of WISH cells, IL-6 gene expression by Northern analysis; conditions: for increase in IL-6 gene expression: 4 h, vs control
Procedure: (§2) Total RNA was extracted (see Chomzynski and Sacchi, supra) and MRNA prepared as previously described (see Aviv and Leder, supra). Samples of MRNA (10-20 μg) were electrophoresed, and the RNA transferred to a nylon membrane (Magna Graph, MSI, Westborough, Mass.) as previously described (see Ognjanovic et al., supra). The cDNA probes were labeled using the Random Primed DNA labeling kit and following the manufacturer's instructions (Invitrogen, Carlsbad, Calif.). The filters were hybridized at 68° C. for 1 h using Express Hyb solution (Clontech, Palo Alto, Calif., USA). A final wash stringency of 0.1×SSC, 0.1% SDS was performed at 50° C. Filters were deprobed in 0.5% SDS for 10 min at 100° C. and re-hybridized sequentially with cDNA probes to PBEF, IL-6 and IL-8 and finally with a human glyceraldehyde-3 phosphate dehydrogenase (G3PDH) cDNA probe (Clontech), as an internal standard. The Northern blot was quantitated with a Phospholmager (Amersham Pharmacia Biotech, Piscataway, N.Y.), using the G3PDH value for each sample to standardize sample loading. Results were expressed as a ratio to G3PDH. Statistical analysis was performed using the Tukey-Kramer multiple comparison test.
(§3) The amnion-like epithelial (WISH) cells were obtained from American Type Culture Collection (ATCC# CCL-25) (ATCC, Manassas, Va.). WISH cells were cultured in Dulbecco's Modified Eagle Medium:Ham F-12 (DMEM:F12) (1:1) supplemented with 10% fetal bovine serum (FBS) (Life Technologies, Grand Island, N.Y.), penicillin (50 U/ml)-streptomycin (50 μg/ml) and incubated at 37° C. in 5% CO2/95% air. After reaching confluency, the cells were trypsinized and plated into 6-well culture dishes at a density of 1×10^5 cells in 4 ml media. After 48 h or when the cells reached 80% confluency, the growth medium was replaced with minimal media (0.5% FBS and 0.2% lactalbumin in DMEM:F12) and incubated for 12 h. Treatment of the cells began with addition of rhPBEF prepared in minimal media. The concentration of rhPBEF was determined using the BioRad protein assay and 1, 10 and 100 ng/ml was added to the cells for 4 and 24 h. Treatment was carried out in triplicate and each experiment was performed at least three times on different occasions. Controls received minimal media containing 0.5% bovine serum albumin (15 μl) in phosphate buffer saline (PBS). […]
In addition to fetal membrane explants, the amniotic epithelial cell line, WISH cells, were also used to study the effects of PBEF on the expression of IL-6 and IL-8. The expression of the IL-6 and IL-8 genes were quantitated by Northern blotting using total RNA isolated from the cells and calculated as the degree of upregulation (fold) compared to the respective control at each time (see FIGS. 4A-4C). […]

[4] = system: IL-8 protein in WISH cell culture media; assay: rhPBEF treatment of WISH cells, IL-8 protein in media by ELISA; conditions: rhPBEF 10 ng/ml, 4 h
Procedure: as §3, with “h.” for “h. Treatment was carried out in triplicate and each experiment was performed at least three times on different occasions. Controls received minimal media containing 0.5% bovine serum albumin (15 μl) in phosphate buffer saline (PBS).”
The IL-8 enzyme-linked immunosorbent assay (ELISA) kit was purchased from R&D Systems (Minneapolis, Minn.) and used to determine the IL-8 protein concentration in the culture supernatants following the manufacturer's protocol. […] The basal levels of IL-6 protein in conditioned media of WISH cells were reported to be at the limit of sensitivity of ELISA (see Keelan et al., supra) and could not be considered reliable, therefore the levels of IL-6 protein were not measured.

[5] = system: IL-8 gene expression in fetal membrane explants; assay: rhPBEF treatment of fetal membrane explants, IL-8 gene expression by Northern analysis; conditions: rhPBEF 100 ng/ml, 4 h, vs control
From the text: as §1, §2
Each fetal membrane was cut into several 3×3 cm explants. […]

[6] = system: key mediators of labor in fetal membrane explants; assay: rhPBEF treatment of fetal membrane explants, gene chip analysis (Affymetrix); conditions: rhPBEF 100 ng/ml, 4 hours
Procedure: Fetal membranes from three patients were cut into several 3×3 cm explants. One explant was used to check for infection. Another explant was treated with 100 ng/ml rhPBEF in minimal media for 4 hours, an adjacent explant was used as a control and was incubated in minimal media only for the same period. At the end of this time, total RNA was extracted using the RNeasy Maxi kit (Qiagen Inc., Valencia, Calif.). These RNAs were run in pairs (explants treated and controls from each of the patients), were reverse-transcribed and the resulting cDNAs/cRNAs labeled with tracking fluorescent dyes and hybridized to DNA microchips (Affymetrix Inc.) containing 22,000 gene transcripts. The binding of the fluorescent fragments was proportional to the abundance of the gene in the original samples. Therefore changes in gene expression result in signal differences. […] The Affymetrix system has numerous controls built into the methodology in order to minimize false positive results.

B1: rhPBEF: recombinant human pre-B cell colony-enhancing factor produced in a bacterial system using pTrcHis2 vector (protein)
chain: MNPAAEAEFNILLATDSYKVTHYKQYPPNTSKVYSYFECREKKTENSKLRKVKYEETVFYGLQYILNKYLKGKVVTKEKIQEAKDVYKEHFQDDVFNEKGWNYILEKYDGHLPIEIKAVPEGFVIPRGNVLFTVENTDPECYWLTNWIETILVQSWYPITVATNSREQKKILAKYLLETSGNLDGLEYKLHDFGYRGVSSQETAGIGASAHLVNFKGTDTVAGLALIKKYYGTKDPVPGYSVPAAEHSTITAWGKDHEKDAFEHIVTQFSSVPVSVVSDSYDIYNACEKIWGEDLRHLIVSRSTQAPLIIRPDSGNPLDTVLKVLEILGKKFPVTENSKGYKLLPPYLRVIQGDGVDINTLQEIVEGMKQKMWSIENIAFGSGGGLLQKLTRDLLNCSFKCSYVVTNGLGINVFKDPVADPNKRSKKGRLSLHRTPAGNFVTLEEGKGDLEEYGQDLLHTVFKNGKVTKSYSFDEIRKNAQLNIELEAAHH
upregulation of IL-6 gene expression [1]: 40% | increase in IL-8 gene expression [2]: absent | increase in IL-6 gene expression ([3]; rhPBEF 1 ng/ml): 15% | increase in IL-6 gene expression ([3]; rhPBEF 10 ng/ml): 29% | increase in IL-6 gene expression ([3]; rhPBEF 100 ng/ml): 44% | IL-6 gene expression, dose dependence ([3]; rhPBEF 1, 10 and 100 ng/ml, 4h): dose-dependent increase | increase in secreted IL-8 (ELISA) [4]: 15% | upregulation of IL-8 gene expression [5]: 120% | upregulation of IL-8 gene expression ([5]; listed as PBEF): 120% | upregulation of IL-8 gene expression ([5]; listed as RhPBEF): significant (p<0.05) increase | COX-2 gene expression [6]: stimulates; also recorded: significantly upregulated | GRO-γ gene expression [6]: significantly upregulated | IL-1β gene expression [6]: stimulates; also recorded: significantly upregulated | IL-6 gene expression [6]: stimulates; also recorded: significantly upregulated | MIP-1α gene expression [6]: significantly upregulated | MIP-1β gene expression [6]: significantly upregulated | TNF-α gene expression [6]: stimulates; also recorded: significantly upregulated
